{"source": "patent US8916693B2", "about": "“Monoconjugated chitosans as delivery agents for small interfering nucleic acids” (Nektar Therapeutics, priority 2009, dated 2014)", "experiment": "PBS buffer hydrolysis of releasable monoPEGylated chitosan (HPLC, disappearance of starting material)", "format": "physicochemical", "conditions": "25 mM PBS, pH 7.3; 2 mg in 1 mL", "protocol": "PBS buffer hydrolysis of releasable monoPEGylated (20 KDa) chitosan (10 KDa): To a solution of 25 mM PBS, pH 7.3, (1 mL) was added the monoPEGylated (20 KDa) chitosan (10 KDa) (2 mg). The solution was filtered through a 0.2 μm filter and analyzed for the disappearance of the PEGylated chitosan starting material on an HPLC system with a flow rate of 0.5 mL/min, gradient (A: 0.1M TEAA, B: 80% ACN and 20% 0.1M TEAA) 15% B 0-4 min, 50% B 8 min, and 58.2% B. The column used was a Zorbax 300SB-C3 3.0×150 mm, […], column.", "data": [{"substance": "Releasable monoPEGylated (20 KDa) Chitosan (10 KDa)", "values": [{"measurement": "calculated half-life (hydrolysis, disappearance of the PEGylated chitosan)", "result": 7.04, "unit": "h"}]}]}
